The source of these data is US20040146512A1 (RINAT NEUROSCIENCE, published 2004).

Assay [1] addresses T1, Aβ1-40 peptide.
T1 construct: Synthetic peptide, also the immunogen; also called Aβ peptide; β-amyloid peptide 1-40
The assay can be described thus: Affinity Kd of Table 2; method and format not stated in Example 1.

Assay [2] addresses T2, Aβ1-42 peptide.
T2 construct: also called 1-42 (WT); β-amyloid peptide 1-42
Nature of the assay: ELISA: peptide immobilized on plate + Ab + GAMIgG(Fc)HRP, absorbance 490 nm.

Assay [3] addresses T3, Aβ1-43 peptide.
T3 construct: also called 1-43 (WT); β-amyloid peptide 1-43
The description is as above.

For assay [4], the target named is T4, beta amyloid precursor protein (βAPP) (Homo sapiens, UniProt P05067 18-770).
T4 construct: also called amyloid beta (A4) precursor protein
T4 sequence (P05067 other isoform, or with tags, fused parts or gaps limits assumed): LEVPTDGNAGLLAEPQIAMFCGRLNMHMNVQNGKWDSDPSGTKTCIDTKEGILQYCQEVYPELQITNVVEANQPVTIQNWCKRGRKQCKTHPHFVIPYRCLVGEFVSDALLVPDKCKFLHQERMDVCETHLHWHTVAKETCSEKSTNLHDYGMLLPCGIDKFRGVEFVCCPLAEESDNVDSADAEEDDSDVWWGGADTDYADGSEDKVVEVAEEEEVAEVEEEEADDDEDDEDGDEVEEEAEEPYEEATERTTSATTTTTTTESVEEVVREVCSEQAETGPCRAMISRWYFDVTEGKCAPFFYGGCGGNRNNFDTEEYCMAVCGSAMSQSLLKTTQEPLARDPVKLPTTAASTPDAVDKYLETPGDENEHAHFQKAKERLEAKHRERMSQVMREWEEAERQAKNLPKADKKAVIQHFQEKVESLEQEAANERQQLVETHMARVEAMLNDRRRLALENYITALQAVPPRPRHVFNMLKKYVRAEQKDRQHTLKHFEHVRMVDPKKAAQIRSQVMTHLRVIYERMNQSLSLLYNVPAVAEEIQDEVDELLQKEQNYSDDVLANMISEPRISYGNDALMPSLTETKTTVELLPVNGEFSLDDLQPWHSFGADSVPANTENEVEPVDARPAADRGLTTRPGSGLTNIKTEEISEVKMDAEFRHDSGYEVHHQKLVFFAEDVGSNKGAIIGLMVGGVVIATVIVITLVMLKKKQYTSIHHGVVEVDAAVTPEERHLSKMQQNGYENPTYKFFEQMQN
The assay can be described thus: ELISA: β-APP (gD) immobilized on plate + Ab + GAMIgG(Fc)HRP, absorbance 490 nm; antibody concentration not given. (In general: In an ELISA, binding on a coated surface is turned into a signal by an enzyme label.)

Assay [5] deals with T5, Wild-type Aβ1-40 expressed as GST fusion protein (Homo sapiens (Human), UniProt P05067 672-711).
T5 construct: Expressed in E. coli; also called Aβ1-40 (WT) GST fusion; WT Aβ1-40; not shown: Glutathione-S-Transferase (GST) fusion partner, Amersham Pharmacia Biotech system
The assay can be described thus: ELISA: GST fusion protein immobilized 0.25 µg per well, antibody at 2 nM, biotin goat anti-mouse (H+L) + streptavidin-HRP, OD450.

Assay [6] concerns the target T6, Aβ1-41 expressed as GST fusion protein (Homo sapiens (Human), UniProt P05067 672-712).
T6 construct: also called 1-41 (WT); not shown: Glutathione-S-Transferase (GST) fusion partner, Amersham Pharmacia Biotech system
The assay is described as above.

For assay [7], the target named is T7, Aβ1-40 variant V36A expressed as GST fusion protein (Homo sapiens (Human), UniProt P05067 672-711, Expressed as a GST fusion protein; the GST part is left out.).
T7 construct: also called V36A (1-40); not shown: GST fusion partner and its linker
T7 sequence (P05067 672-711 V707A limits assumed): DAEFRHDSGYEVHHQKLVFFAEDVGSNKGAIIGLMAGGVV
The assay is described as above.

Assay [8] addresses T8, Aβ1-40 variant V39A expressed as GST fusion protein (Homo sapiens (Human), UniProt P05067 672-711, Expressed as a GST fusion protein; the GST part is left out.).
T8 construct: also called V39A (1-40); not shown: GST fusion partner and its linker
The description is as above.

The target of assay [9] is T9, Aβ1-40 variant V40A expressed as GST fusion protein (Homo sapiens (Human), UniProt P05067 672-710, Expressed as a GST fusion protein; the GST part is left out.).
T9 construct: also called V40A (1-40); not shown: GST fusion partner and its linker
T9 sequence (P05067 672-711 V711A limits assumed): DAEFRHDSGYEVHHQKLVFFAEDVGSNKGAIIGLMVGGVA
The assay is described as above.

Assay [10] deals with T10, Aβ1-16 peptide.
T10 construct: Soluble fragment from American Peptide Company
T10 peptide: DAEFRHDSGYEVHHQK
The assay can be described thus: SPR (Biacore 3000) competition: antibody 100 nM over biotin-Aβ1-40 on a streptavidin chip, with soluble peptide at 1000 nM; % of maximal binding.

Assay [11] concerns the target T11, Aβ1-28 peptide.
T11 construct: Soluble fragment from American Peptide Company
The assay is described as above.

For assay [12], the target named is T12, Aβ1-38 peptide.
T12 construct: Soluble fragment from American Peptide Company
The assay is described as above.

Assay [13] concerns the target T2, Aβ1-42 peptide. The assay can be described thus: ELISA: peptide immobilized on plate + Ab + GAMIgG(Fc)HRP, absorbance 490 nm; antibody concentration not given.
Assay [14] deals with T3, Aβ1-43 peptide. Described as above.
The target in assay [15] is T6, Aβ1-41 expressed as GST fusion protein. Nature of the assay: ELISA: GST fusion protein immobilized 0.25 µg per well, biotin goat anti-mouse (H+L) + streptavidin-HRP, OD450.
In assay [16] the target is T10, Aβ1-16 peptide. The assay can be described thus: SPR (Biacore 3000) competition: antibody over biotin-Aβ1-40 on a streptavidin chip, with soluble peptide; % of maximal binding. In general terms: Surface plasmon resonance follows binding to a sensor surface in real time, without labels.
Assay [17] has as its target T11, Aβ1-28 peptide. The assay is described as above.
Assay [18] has as its target T12, Aβ1-38 peptide. The assay is described as above.
The target in assay [19] is T13, Aβ1-40 polypeptide coupled to biotin, immobilized on a streptavidin-coated chip (coupled to biotin (position not given)).
T13 construct: From Global Peptide Services; Used in the SPR assays; also called biotinylated Aβ peptide 1-40; immobilized Aβ1-40
Nature of the assay: SPR (BIAcore 3000), Fab over biotin-Aβ1-40 on SA chip, 'Steady-State' method.

T6 sequence (P05067 672-712): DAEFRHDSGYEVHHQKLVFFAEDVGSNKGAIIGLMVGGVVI
T8 sequence (P05067 672-711 V710A limits assumed): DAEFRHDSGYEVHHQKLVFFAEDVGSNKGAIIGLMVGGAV

B1: monoclonal antibody 2324 (produced by hybridoma 10B10.2E6) (antibody, V domains shown)
VH: VTLKESGPGILKPSQTLSLTCSFSGFSLSTSGMGVGWIRQSSGKGLEWLAHIWWDDDKYYNPSLKSQLTISKDTSRNQVFLKITSVDTADTATYYCARRGVRHRDYFDYWGQGTTLTVSS
VL: DVLMTQTPLSLPVSLGDQASISCRSSQSIVHSNGNTYLEWYLQKPGQSPKLLIYKVSNRFSGVPDRFSGSGSGTDFTLKISRVEAEDLGVYYCFQGSRVPLTFGAGTKLELKR
For orientation: Kd means a measure of binding affinity in units of concentration. In [1], B1 showed a dissociation constant (Kd) of 0.9 nM. For the same molecule, the binding result in assay [2] is “binds”; in assay [3], “binds”; in assay [4], “no binding”; in assay [5], “binds”; in assay [6], “binds”; in assay [7] it was “binds”. Besides, the binding result in assay [8], in assay [9], in assay [10], in [11] and in assay [12] was “binds” each time.

B2: monoclonal antibody 2286 (produced by hybridoma 8A1.2A1) (antibody, V domains shown)
VH: EVKLLESGGGLVQPGGSLKLSCAASGFDFSRYWMNWVRQAPGKGLEWIGEINPDSSTINYTPSLKDKFIISRDNAKNTLYLQMSKVRSEDTALYYCARQMGYWGQGTTLTVSS
VL: DIQMTQTTSSLSASLGDRVTISCSASQGISNYLNWFQQKPDGTVKLLIYYTSSLHSGVPSRFSGSGSGTDYSLTISNLEPEDIATYYCQQYRKLPYTFGGGTKLEIKR
B2 gave a Kd in [1] of 2.7 nM. For the same molecule, the binding result in [13] is “no binding”; in assay [14], “no binding”; in [15], “no binding (tested: 2 nM)”; in assay [16], “no binding”; in assay [17], “no binding”; in assay [18], “no binding”. Besides, the binding result in assay [7], in assay [8] and in [9] was “binds” throughout.

B3: Mouse 2286 Fab (Fab, V domains shown)
VH: EVKLLESGGGLVQPGGSLKLSCAASGFDFSRYWMNWVRQAPGKGLEWIGEINPDSSTINYTPSLKDKFIISRDNAKNTLYLQMSKVRSEDTALYYCARQMGYWGQGTTLTVSS
VL: DIQMTQTTSSLSASLGDRVTISCSASQGISNYLNWFQQKPDGTVKLLIYYTSSLHSGVPSRFSGSGSGTDYSLTISNLEPEDIATYYCQQYRKLPYTFGGGTKLEIKR
On to B3, for which the Kd in assay [19] was 76 nM.
